Assay results taken from patent US20220010003A1 (Boehringer Ingelheim, published 2022).
Changes are numbered by the printed parent chain. Names may count otherwise.

B1: NB1003 (N55S) (antibody, V domains shown)
VH: QVQLVQSGAEVKKPGASVKVSCKASGYTFTSYGISWVRQAPGQGLEWMGWISAYSGNTNYAQKLQGRVTMTTDTSTSTAYMELRSLRSDDTAVYYCARDMLVVPFDYWGQGTLVTVSS
VL: QSVLTQSSSASGTPGQTVTVSCSGSSSDIGSNRVNWYQQLPGTAPKLLIYSNDQRPSGVPDRFSGSKSGTSASLAISGLQSADEADYYCAAWDDSLSTYVFGSGTKVTVL
notes: Variant of NB0828 (IgG4PAA parent); the isotype of the variant is not restated
B2: NB1010 (N55Q) (antibody, V domains shown)
VH: B1 VH with S55Q
VL: B1 VL
notes: as for B1
B3: NB1011 (N55T) (antibody, V domains shown)
VH: B1 VH with S55T
VL: B1 VL
notes: as for B1
B4: NB1012 (N55S_M100I) (antibody, V domains shown)
VH: B1 VH with M100I
VL: B1 VL
notes: Double mutant of NB0828 (IgG4PAA parent); the isotype of the variant is not restated
B5: NB1014 (N55T_M100V) (antibody, V domains shown)
VH: B1 VH with S55T, M100V
VL: B1 VL
notes: as for B4
B6: NB1015 (N55D) (antibody, V domains shown)
VH: B1 VH with S55D
VL: B1 VL
notes: as for B1
B7: NB0627 (antibody, human IgG1, V domains shown)
VH: B1 VH with S55N
VL: B1 VL

These binders were tested against T1, recombinant mouse periostin (mouse, UniProt Q62009-2 24-811, limits assumed) (assay: cell-based or functional assay).
T1 sequence (looked up): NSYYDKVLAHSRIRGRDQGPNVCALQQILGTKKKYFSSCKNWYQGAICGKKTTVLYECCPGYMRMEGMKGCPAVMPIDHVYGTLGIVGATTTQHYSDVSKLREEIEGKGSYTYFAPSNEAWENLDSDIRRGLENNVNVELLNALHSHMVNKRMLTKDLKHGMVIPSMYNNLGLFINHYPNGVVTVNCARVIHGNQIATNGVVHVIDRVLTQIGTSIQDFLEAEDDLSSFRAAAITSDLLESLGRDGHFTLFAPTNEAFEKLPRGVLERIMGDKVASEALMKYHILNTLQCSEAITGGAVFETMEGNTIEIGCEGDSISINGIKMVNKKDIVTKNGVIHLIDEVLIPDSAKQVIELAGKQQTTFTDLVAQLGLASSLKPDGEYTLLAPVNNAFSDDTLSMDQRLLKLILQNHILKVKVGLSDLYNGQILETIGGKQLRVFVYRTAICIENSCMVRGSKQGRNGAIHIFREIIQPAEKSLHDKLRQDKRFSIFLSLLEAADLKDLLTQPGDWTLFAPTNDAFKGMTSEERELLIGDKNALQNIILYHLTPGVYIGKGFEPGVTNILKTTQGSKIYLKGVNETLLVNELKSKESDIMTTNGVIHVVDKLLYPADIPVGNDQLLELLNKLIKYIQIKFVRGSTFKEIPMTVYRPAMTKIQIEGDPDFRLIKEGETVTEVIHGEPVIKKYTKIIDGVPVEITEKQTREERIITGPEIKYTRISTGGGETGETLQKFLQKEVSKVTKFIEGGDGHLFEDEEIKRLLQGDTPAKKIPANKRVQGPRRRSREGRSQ

Binder | CAA IC50
B1 | 14.9 nM
B2 | 19.6 nM
B3 | 22.3 nM
B4 | 42.3 nM
B5 | 65.1 nM
B6 | 20.9 nM

The binders below were run against T2, recombinant human periostin (human, UniProt Q15063 22-836) (assay: cell-based or functional assay).
T2 sequence: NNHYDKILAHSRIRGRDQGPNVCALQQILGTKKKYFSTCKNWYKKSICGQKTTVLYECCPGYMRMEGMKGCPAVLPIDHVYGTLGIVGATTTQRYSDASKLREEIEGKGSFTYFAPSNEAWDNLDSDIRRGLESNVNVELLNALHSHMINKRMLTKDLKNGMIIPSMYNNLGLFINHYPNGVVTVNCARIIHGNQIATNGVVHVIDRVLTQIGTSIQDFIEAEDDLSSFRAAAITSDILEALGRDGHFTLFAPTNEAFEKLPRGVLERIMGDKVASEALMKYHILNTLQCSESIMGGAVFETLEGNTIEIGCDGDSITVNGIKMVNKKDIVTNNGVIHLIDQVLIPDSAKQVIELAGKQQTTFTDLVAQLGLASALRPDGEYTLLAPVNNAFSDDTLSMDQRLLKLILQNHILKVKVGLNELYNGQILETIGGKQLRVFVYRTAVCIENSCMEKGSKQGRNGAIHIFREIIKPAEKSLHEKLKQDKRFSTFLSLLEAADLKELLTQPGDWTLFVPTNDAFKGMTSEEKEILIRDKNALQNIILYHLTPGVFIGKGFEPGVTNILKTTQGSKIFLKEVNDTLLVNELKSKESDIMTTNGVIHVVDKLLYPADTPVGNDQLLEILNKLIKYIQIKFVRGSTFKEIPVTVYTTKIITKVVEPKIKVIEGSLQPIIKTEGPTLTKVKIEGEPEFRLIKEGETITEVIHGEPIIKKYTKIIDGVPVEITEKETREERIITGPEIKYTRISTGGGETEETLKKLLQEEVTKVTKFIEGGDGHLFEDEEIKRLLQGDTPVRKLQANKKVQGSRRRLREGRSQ

Binder | CAA IC50
B1 | 10.8 nM
B2 | 7.97 nM
B3 | 15 nM
B6 | 13.6 nM

These binders were tested against T1, recombinant mouse periostin (assay: binding ELISA, periostin coated).

Binder | EC50
B1 | 0.08 nM
B2 | 0.1 nM
B3 | 0.07 nM
B4 | 4.42 nM
B5 | 19.3 nM
B6 | 0.18 nM

What follows are binders tested against T2, recombinant human periostin (assay: binding ELISA, periostin coated).

Binder | EC50
B1 | 0.08 nM
B2 | 0.08 nM
B3 | 0.07 nM
B4 | 2.28 nM
B5 | 9.47 nM
B6 | 0.12 nM

Molecular target: T2, recombinant human periostin
Test: cell-based or functional assay
Remark: another data set of the same source

Binder | IC50 (nM), cell attachment assay
B7 | 22.4 nM

The binders below were run against T1, recombinant mouse periostin (assay: ELISA, periostin coated, anti-human Fc-HRP; the clone is named in Table 2).

Binder | EC50
B7 | < 1 nM

These binders were tested against T2, recombinant human periostin in the same assay as above.

Binder | EC50
B7 | < 1 nM
